These results are taken from patent US20220098306A1 (Xencor, published 2022).

Assay [1] deals with T1, CD28 (antigen of the affinity determinations) (human, UniProt P10747 19-152, limits assumed).
T1 construct: also called human CD28
The assay can be described thus: binding affinity of the CD28 binding domain; method not given.

Assay [2] has as its target T2, B7H3 (antigen of the affinity statements) (human, UniProt Q5ZPR3 29-466, limits assumed).
T2 construct: also called CD276
T2 sequence (looked up): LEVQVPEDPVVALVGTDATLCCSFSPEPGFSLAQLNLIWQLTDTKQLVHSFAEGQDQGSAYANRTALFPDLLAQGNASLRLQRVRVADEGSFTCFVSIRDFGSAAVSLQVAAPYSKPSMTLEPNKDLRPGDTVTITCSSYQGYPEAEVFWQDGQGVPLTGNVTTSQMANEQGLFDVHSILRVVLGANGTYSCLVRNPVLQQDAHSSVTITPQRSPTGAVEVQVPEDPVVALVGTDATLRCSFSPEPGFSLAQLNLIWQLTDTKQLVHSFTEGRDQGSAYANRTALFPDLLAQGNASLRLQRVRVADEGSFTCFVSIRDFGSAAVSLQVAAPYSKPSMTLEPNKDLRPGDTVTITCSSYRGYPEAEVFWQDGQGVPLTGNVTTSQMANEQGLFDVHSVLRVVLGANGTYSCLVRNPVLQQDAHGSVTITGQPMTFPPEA
The assay can be described thus: monovalent affinity in 1+1 bsAb format (Example 2B).

B1: XENP34339 (bispecific antibody)
heavy 1: EVQLLESGGGLVQPGGSLRLSCAASGFTFSSYYMSWVRQAPGKGLEWVSTISESGDSTYYADSVKGRFTISRDNSKNTLYLQMNSLRAEDTAVYYCAKSGPGLRQVGFDYWGQGTLVTVSSASTKGPSVFPLAPSSKSTSGGTAALGCLVKDYFPEPVTVSWNSGALTSGVHTFPAVLQSSGLYSLSSVVTVPSSSLGTQTYICNVNHKPSDTKVDKKVEPKSCDKTHTCPPCPAPPVAGPSVFLFPPKPKDTLMISRTPEVTCVVVDVKHEDPEVKFNWYVDGVEVHNAKTKPREEEYNSTYRVVSVLTVLHQDWLNGKEYKCKVSNKALPAPIEKTISKAKGQPREPQVYTLPPSREEMTKNQVSLTCDVSGFYPSDIAVEWESDGQPENNYKTTPPVLDSDGSFFLYSKLTVDKSRWEQGDVFSCSVMHEALHNHYTQKSLSLSPGK
heavy 2: QVQLVQSGAEVKKPGASVKVSCKASGYIFTNNYMHWVRQAPGQGLEWMGIISPSVGRTAYAQKFQGRVTMTRDTSTSTVYMELSSLRSEDTAVYYCARGGGSSPRLDYWGQGTLVTVSSASTKGPSVFPLAPSSKSTSGGTAALGCLVKDYFPEPVTVSWNSGALTSGVHTFPAVLQSSGLYSLSSVVTVPSSSLGTQTYICNVNHKPSNTKVDKKVEPKSCGKPGSGKPGSQVQLVQSGAEVKKPGASVKVSCKASGYIFTNNYMHWVRQAPGQGLEWMGIISPSVGRTAYAQKFQGRVTMTRDTSTSTVYMELSSLRSEDTAVYYCARGGGSSPRLDYWGQGTLVTVSSASTKGPSVFPLAPSSKSTSGGTAALGCLVKDYFPEPVTVSWNSGALTSGVHTFPAVLQSSGLYSLSSVVTVPSSSLGTQTYICNVNHKPSNTKVDKKVEPKSCDKTHTCPPCPAPPVAGPSVFLFPPKPKDTLMISRTPEVTCVVVDVKHEDPEVKFNWYVDGVEVHNAKTKPREEQYNSTYRVVSVLTVLHQDWLNGKEYKCKVSNKALPAPIEKTISKAKGQPREPQVYTLPPSREQMTKNQVKLTCLVKGFYPSDIAVEWESNGQPENNYKTTPPVLDSDGSFFLYSKLTVDKSRWQQGNVFSCSVMHEALHNHYTQKSLSLSPGK
light: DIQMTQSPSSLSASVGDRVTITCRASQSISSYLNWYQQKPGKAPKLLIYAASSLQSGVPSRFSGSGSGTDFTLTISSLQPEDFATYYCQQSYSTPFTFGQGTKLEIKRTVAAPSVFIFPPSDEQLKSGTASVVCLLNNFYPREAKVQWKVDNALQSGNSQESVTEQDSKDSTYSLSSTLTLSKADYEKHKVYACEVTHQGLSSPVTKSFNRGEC
notes: 2+1 CLC format; also called B7H3 x CD28 bsAb in 2+1 CLC format; copies: 1 + 1 + 3
Regarding B1, in assay [1], the affinity, expressed as Kd, was 77 nM.

B2: XENP34336 (bispecific antibody)
heavy 1: EVQLLESGGGLVQPGGSLRLSCAASGFTFSSYYMSWVRQAPGKGLEWVSTISESGDSTYYADSVKGRFTISRDNSKNTLYLQMNSLRAEDTAVYYCAKSGPGLRQVGFDYWGQGTLVTVSSASTKGPSVFPLAPSSKSTSGGTAALGCLVKDYFPEPVTVSWNSGALTSGVHTFPAVLQSSGLYSLSSVVTVPSSSLGTQTYICNVNHKPSDTKVDKKVEPKSCDKTHTCPPCPAPPVAGPSVFLFPPKPKDTLMISRTPEVTCVVVDVKHEDPEVKFNWYVDGVEVHNAKTKPREEEYNSTYRVVSVLTVLHQDWLNGKEYKCKVSNKALPAPIEKTISKAKGQPREPQVYTLPPSREEMTKNQVSLTCDVSGFYPSDIAVEWESDGQPENNYKTTPPVLDSDGSFFLYSKLTVDKSRWEQGDVFSCSVMHEALHNHYTQKSLSLSPGK
heavy 2: QVQLVQSGAEVKKPGASVKVSCKASGYIFTNHYMHWVRQAPGQGLEWMGIISPSAGSTDYAQKFQGRVTMTRDTSTSTVYMELSSLRSEDTAVYYCARGGGSSPRLDYWGQGTLVTVSSASTKGPSVFPLAPSSKSTSGGTAALGCLVKDYFPEPVTVSWNSGALTSGVHTFPAVLQSSGLYSLSSVVTVPSSSLGTQTYICNVNHKPSNTKVDKKVEPKSCGKPGSGKPGSQVQLVQSGAEVKKPGASVKVSCKASGYIFTNHYMHWVRQAPGQGLEWMGIISPSAGSTDYAQKFQGRVTMTRDTSTSTVYMELSSLRSEDTAVYYCARGGGSSPRLDYWGQGTLVTVSSASTKGPSVFPLAPSSKSTSGGTAALGCLVKDYFPEPVTVSWNSGALTSGVHTFPAVLQSSGLYSLSSVVTVPSSSLGTQTYICNVNHKPSNTKVDKKVEPKSCDKTHTCPPCPAPPVAGPSVFLFPPKPKDTLMISRTPEVTCVVVDVKHEDPEVKFNWYVDGVEVHNAKTKPREEQYNSTYRVVSVLTVLHQDWLNGKEYKCKVSNKALPAPIEKTISKAKGQPREPQVYTLPPSREQMTKNQVKLTCLVKGFYPSDIAVEWESNGQPENNYKTTPPVLDSDGSFFLYSKLTVDKSRWQQGNVFSCSVMHEALHNHYTQKSLSLSPGK
light: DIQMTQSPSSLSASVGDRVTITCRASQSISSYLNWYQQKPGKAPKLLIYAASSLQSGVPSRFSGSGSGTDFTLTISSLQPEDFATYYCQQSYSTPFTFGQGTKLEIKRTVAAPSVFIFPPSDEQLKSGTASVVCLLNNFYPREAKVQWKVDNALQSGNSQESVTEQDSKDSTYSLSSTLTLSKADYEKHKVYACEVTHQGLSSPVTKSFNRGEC
notes: 2+1 CLC format; copies: 1 + 1 + 3
In turn, B2 registered a Kd in assay [1] of 440 nM. Against the preceding molecule, the Kd is about 5.7-fold higher.

B3: XENP35611 (bispecific antibody)
heavy 1: EVQLLESGGGLVQPGGSLRLSCAASGFTFSSYAMSWVRQAPGKGLEWVSTISGSGDSTYYADSVKGRFTISRDNSKNTLYLQMNSLRAEDTAVYYCAKSGPGLRQVGFDYWGQGTLVTVSSASTKGPSVFPLAPSSKSTSGGTAALGCLVKDYFPEPVTVSWNSGALTSGVHTFPAVLQSSGLYSLSSVVTVPSSSLGTQTYICNVNHKPSDTKVDKKVEPKSCDKTHTCPPCPAPPVAGPSVFLFPPKPKDTLMISRTPEVTCVVVDVKHEDPEVKFNWYVDGVEVHNAKTKPREEEYNSTYRVVSVLTVLHQDWLNGKEYKCKVSNKALPAPIEKTISKAKGQPREPQVYTLPPSREEMTKNQVSLTCDVSGFYPSDIAVEWESDGQPENNYKTTPPVLDSDGSFFLYSKLTVDKSRWEQGDVFSCSVMHEALHNHYTQKSLSLSPGK
heavy 2: QVQLVQSGAEVKKPGASVKVSCKASGYIFTNNYMHWVRQAPGQGLEWMGIISPSVGRTAYAQKFQGRVTMTRDTSTSTVYMELSSLRSEDTAVYYCARGGGSSPRLDYWGQGTLVTVSSASTKGPSVFPLAPSSKSTSGGTAALGCLVKDYFPEPVTVSWNSGALTSGVHTFPAVLQSSGLYSLSSVVTVPSSSLGTQTYICNVNHKPSNTKVDKKVEPKSCGKPGSGKPGSQVQLVQSGAEVKKPGASVKVSCKASGYIFTNNYMHWVRQAPGQGLEWMGIISPSVGRTAYAQKFQGRVTMTRDTSTSTVYMELSSLRSEDTAVYYCARGGGSSPRLDYWGQGTLVTVSSASTKGPSVFPLAPSSKSTSGGTAALGCLVKDYFPEPVTVSWNSGALTSGVHTFPAVLQSSGLYSLSSVVTVPSSSLGTQTYICNVNHKPSNTKVDKKVEPKSCDKTHTCPPCPAPPVAGPSVFLFPPKPKDTLMISRTPEVTCVVVDVKHEDPEVKFNWYVDGVEVHNAKTKPREEQYNSTYRVVSVLTVLHQDWLNGKEYKCKVSNKALPAPIEKTISKAKGQPREPQVYTLPPSREQMTKNQVKLTCLVKGFYPSDIAVEWESNGQPENNYKTTPPVLDSDGSFFLYSKLTVDKSRWQQGNVFSCSVMHEALHNHYTQKSLSLSPGK
light: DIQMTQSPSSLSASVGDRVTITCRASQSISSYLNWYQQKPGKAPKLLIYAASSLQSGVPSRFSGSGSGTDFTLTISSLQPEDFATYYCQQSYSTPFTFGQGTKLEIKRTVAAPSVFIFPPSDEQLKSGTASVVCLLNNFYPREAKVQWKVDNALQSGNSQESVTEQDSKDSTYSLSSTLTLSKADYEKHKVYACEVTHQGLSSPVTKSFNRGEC
notes: as for B2
The molecule B3 registered a Kd in assay [1] of 610 nM.

B4: XENP35612 (bispecific antibody)
heavy 1: EVQLLESGGGLVQPGGSLRLSCAASGFTFSSYYMSWVRQAPGKGLEWVSTISGSGDSTYYADSVKGRFTISRDNSKNTLYLQMNSLRAEDTAVYYCAKSGPGLRQVGFDYWGQGTLVTVSSASTKGPSVFPLAPSSKSTSGGTAALGCLVKDYFPEPVTVSWNSGALTSGVHTFPAVLQSSGLYSLSSVVTVPSSSLGTQTYICNVNHKPSDTKVDKKVEPKSCDKTHTCPPCPAPPVAGPSVFLFPPKPKDTLMISRTPEVTCVVVDVKHEDPEVKFNWYVDGVEVHNAKTKPREEEYNSTYRVVSVLTVLHQDWLNGKEYKCKVSNKALPAPIEKTISKAKGQPREPQVYTLPPSREEMTKNQVSLTCDVSGFYPSDIAVEWESDGQPENNYKTTPPVLDSDGSFFLYSKLTVDKSRWEQGDVFSCSVMHEALHNHYTQKSLSLSPGK
heavy 2: QVQLVQSGAEVKKPGASVKVSCKASGYIFTNNYMHWVRQAPGQGLEWMGIISPSVGRTAYAQKFQGRVTMTRDTSTSTVYMELSSLRSEDTAVYYCARGGGSSPRLDYWGQGTLVTVSSASTKGPSVFPLAPSSKSTSGGTAALGCLVKDYFPEPVTVSWNSGALTSGVHTFPAVLQSSGLYSLSSVVTVPSSSLGTQTYICNVNHKPSNTKVDKKVEPKSCGKPGSGKPGSQVQLVQSGAEVKKPGASVKVSCKASGYIFTNNYMHWVRQAPGQGLEWMGIISPSVGRTAYAQKFQGRVTMTRDTSTSTVYMELSSLRSEDTAVYYCARGGGSSPRLDYWGQGTLVTVSSASTKGPSVFPLAPSSKSTSGGTAALGCLVKDYFPEPVTVSWNSGALTSGVHTFPAVLQSSGLYSLSSVVTVPSSSLGTQTYICNVNHKPSNTKVDKKVEPKSCDKTHTCPPCPAPPVAGPSVFLFPPKPKDTLMISRTPEVTCVVVDVKHEDPEVKFNWYVDGVEVHNAKTKPREEQYNSTYRVVSVLTVLHQDWLNGKEYKCKVSNKALPAPIEKTISKAKGQPREPQVYTLPPSREQMTKNQVKLTCLVKGFYPSDIAVEWESNGQPENNYKTTPPVLDSDGSFFLYSKLTVDKSRWQQGNVFSCSVMHEALHNHYTQKSLSLSPGK
light: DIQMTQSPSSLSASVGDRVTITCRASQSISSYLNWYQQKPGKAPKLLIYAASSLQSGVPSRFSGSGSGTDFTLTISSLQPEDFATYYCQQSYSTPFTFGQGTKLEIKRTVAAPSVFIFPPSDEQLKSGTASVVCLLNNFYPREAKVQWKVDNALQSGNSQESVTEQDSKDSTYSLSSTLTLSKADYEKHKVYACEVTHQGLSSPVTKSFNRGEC
notes: as for B2
The molecule B4 displayed a Kd in assay [1] of 270 nM.

B5: XENP35151 (bispecific antibody)
heavy: EVQLVESGGGLVKPGGSLRLSCAASGFSFSVGYYMCWVRQAPGKGLEWVSCIYVGSGSSGSTYYASVKGRFTISSDTAKTSVYLQMNSLRAEDTAVYFCARTAGSDWRLDLWGQGTLVTVSSASTKGPSVFPLAPSSKSTSGGTAALGCLVKDYFPEPVTVSWNSGALTSGVHTFPAVLQSSGLYSLSSVVTVPSSSLGTQTYICNVNHKPSDTKVDKKVEPKSCDKTHTCPPCPAPPVAGPSVFLFPPKPKDTLMISRTPEVTCVVVDVKHEDPEVKFNWYVDGVEVHNAKTKPREEEYNSTYRVVSVLTVLHQDWLNGKEYKCKVSNKALPAPIEKTISKAKGQPREPQVYTLPPSREEMTKNQVSLTCDVSGFYPSDIAVEWESDGQPENNYKTTPPVLDSDGSFFLYSKLTVDKSRWEQGDVFSCSVLHEALHSHYTQKSLSLSPGK
scFv-Fc: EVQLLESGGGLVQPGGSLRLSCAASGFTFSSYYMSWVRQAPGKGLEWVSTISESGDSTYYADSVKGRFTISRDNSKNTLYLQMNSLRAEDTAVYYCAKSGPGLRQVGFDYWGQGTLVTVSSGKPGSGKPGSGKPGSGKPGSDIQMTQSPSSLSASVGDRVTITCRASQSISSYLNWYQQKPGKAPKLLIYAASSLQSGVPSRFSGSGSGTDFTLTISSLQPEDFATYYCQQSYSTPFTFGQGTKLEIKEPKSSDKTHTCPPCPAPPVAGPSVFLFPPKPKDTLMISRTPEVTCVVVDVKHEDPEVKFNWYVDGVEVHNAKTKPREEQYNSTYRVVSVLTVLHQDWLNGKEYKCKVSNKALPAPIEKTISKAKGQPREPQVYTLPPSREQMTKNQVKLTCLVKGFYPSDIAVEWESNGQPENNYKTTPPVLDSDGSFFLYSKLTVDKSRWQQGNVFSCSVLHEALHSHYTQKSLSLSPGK
light: DIVMTQSPSSLSASVGDRVTITCRASQSIANELSWYQQKPGKPPKLLIYRASTLTSGVPSRFKGSGSGTDFTLTISSLQPEDFATYYCQSTYNGRAIGFGGGTKVEIKRTVAAPSVFIFPPSDEQLKSGTASVVCLLNNFYPREAKVQWKVDNALQSGNSQESVTEQDSKDSTYSLSSTLTLSKADYEKHKVYACEVTHQGLSSPVTKSFNRGEC
notes: 1+1 Fab-scFv-Fc; copies: 1 + 1 + 1
Turning to B5, the binding result in assay [2] is “binds”.
